This assay concerns the target piperazate synthase PipS, C-terminal His6-tagged (holo-PipS) (Streptomyces griseus subsp. griseus NRRL F-5144). The assay is described as follows: crystal structure.

Regarding “piperazate synthase PipS, C-terminal His6-tagged (holo-PipS) (enzyme)”, the stoichiometry N (in general, the number of molecules, sites or subunits per partner or assembly) came to 2.

The record behind these values is paper doi:10.1101/2023.12.15.571702.
